Laboratory results published in patent US20090148437A1.

Experiments:
[1] = molecular target: human TNFR1 (soluble recombinant protein) (human) (UniProt P19438); test: phage ELISA, 1 nM TNFRI coat; no trypsin; phage input 5.64E+09
[2] = molecular target: human TNFR1 (soluble recombinant protein) (human) (UniProt P19438); test: phage ELISA, 1 nM TNFRI coat; no trypsin; phage input 1.13E+10
[3] = molecular target: human TNFR1 (soluble recombinant protein) (human) (UniProt P19438); test: phage ELISA, 1 nM TNFRI coat; 10 µg/ml trypsin; phage input 3.52E+08
[4] = molecular target: human TNFR1 (soluble recombinant protein) (human) (UniProt P19438); test: phage ELISA, 1 nM TNFRI coat; 1 mg/ml trypsin; phage input 2.26E+10
[5] = molecular target: human TNFR1 (soluble recombinant protein) (human) (UniProt P19438); test: phage ELISA, plate coated with 1 nM TNFRI, anti-M13-HRP; phage pre-treated 1 h RT with 100 µg/ml trypsin; phage input 4.51E+10
[6] = molecular target: human TNFR1 (soluble recombinant protein) (human) (UniProt P19438); test: phage ELISA, 1 nM TNFRI coat; 100 µg/ml trypsin; phage input 1.41E+09
[7] = molecular target: human TNFR1 (soluble recombinant protein) (human) (UniProt P19438); test: phage ELISA, 1 nM TNFRI coat; 100 µg/ml trypsin; phage input 2.82E+09
[8] = molecular target: human TNFR1 (soluble recombinant protein) (human) (UniProt P19438); test: phage ELISA, plate coated with 1 nM TNFRI, anti-M13-HRP; phage pre-treated 1 h RT with 1 mg/ml trypsin; phage input 4.51E+10
[9] = molecular target: human TNFR1 (soluble recombinant protein) (human) (UniProt P19438); test: phage ELISA, 1 nM TNFRI coat; 10 µg/ml trypsin; phage input 2.82E+09
[10] = molecular target: human TNFR1 (soluble recombinant protein) (human) (UniProt P19438); test: phage ELISA, 1 nM TNFRI coat; no trypsin; phage input 3.52E+08
[11] = molecular target: human TNFR1 (soluble recombinant protein) (human) (UniProt P19438); test: phage ELISA, 1 nM TNFRI coat; 10 µg/ml trypsin; phage input 1.13E+10
[12] = molecular target: human TNFR1 (soluble recombinant protein) (human) (UniProt P19438); test: phage ELISA, 1 nM TNFRI coat; no trypsin; phage input 2.82E+09
[13] = molecular target: human TNFR1 (soluble recombinant protein) (human) (UniProt P19438); test: phage ELISA, 1 nM TNFRI coat; 10 µg/ml trypsin; phage input 2.26E+10
[14] = molecular target: human TNFR1 (soluble recombinant protein) (human) (UniProt P19438); test: phage ELISA, 1 nM TNFRI coat; 100 µg/ml trypsin; phage input 3.52E+08
[15] = molecular target: human TNFR1 (soluble recombinant protein) (human) (UniProt P19438); test: phage ELISA, 1 nM TNFRI coat; 100 µg/ml trypsin; phage input 1.13E+10
[16] = molecular target: human TNFR1 (soluble recombinant protein) (human) (UniProt P19438); test: phage ELISA, 1 nM TNFRI coat; 1 mg/ml trypsin; phage input 3.52E+08
[17] = molecular target: human TNFR1 (soluble recombinant protein) (human) (UniProt P19438); test: phage ELISA, 1 nM TNFRI coat; 100 µg/ml trypsin; phage input 7.05E+08
[18] = molecular target: human TNFR1 (soluble recombinant protein) (human) (UniProt P19438); test: phage ELISA, 1 nM TNFRI coat; 10 µg/ml trypsin; phage input 7.05E+08
[19] = molecular target: human TNFR1 (soluble recombinant protein) (human) (UniProt P19438); test: phage ELISA, plate coated with 1 nM TNFRI, anti-M13-HRP; phage pre-treated 1 h RT with 10 µg/ml trypsin; phage input 4.51E+10
[20] = molecular target: human TNFR1 (soluble recombinant protein) (human) (UniProt P19438); test: phage ELISA, 1 nM TNFRI coat; 1 mg/ml trypsin; phage input 1.41E+09
[21] = molecular target: human TNFR1 (soluble recombinant protein) (human) (UniProt P19438); test: phage ELISA, 1 nM TNFRI coat; no trypsin; phage input 2.26E+10
[22] = molecular target: human TNFR1 (soluble recombinant protein) (human) (UniProt P19438); test: phage ELISA, 1 nM TNFRI coat; no trypsin; phage input 1.41E+09
[23] = molecular target: human TNFR1 (soluble recombinant protein) (human) (UniProt P19438); test: phage ELISA, plate coated with 1 nM TNFRI, anti-M13-HRP; no trypsin (0 µg/ml); phage input 4.51E+10
[24] = molecular target: human TNFR1 (soluble recombinant protein) (human) (UniProt P19438); test: phage ELISA, 1 nM TNFRI coat; 1 mg/ml trypsin; phage input 2.82E+09
[25] = molecular target: human TNFR1 (soluble recombinant protein) (human) (UniProt P19438); test: phage ELISA, 1 nM TNFRI coat; 10 µg/ml trypsin; phage input 1.41E+09
[26] = molecular target: human TNFR1 (soluble recombinant protein) (human) (UniProt P19438); test: phage ELISA, 1 nM TNFRI coat; no trypsin; phage input 7.05E+08
[27] = molecular target: human TNFR1 (soluble recombinant protein) (human) (UniProt P19438); test: phage ELISA, 1 nM TNFRI coat; 100 µg/ml trypsin; phage input 5.64E+09
[28] = molecular target: human TNFR1 (soluble recombinant protein) (human) (UniProt P19438); test: phage ELISA, 1 nM TNFRI coat; 1 mg/ml trypsin; phage input 1.13E+10
[29] = molecular target: human TNFR1 (soluble recombinant protein) (human) (UniProt P19438); test: phage ELISA, 1 nM TNFRI coat; 10 µg/ml trypsin; phage input 5.64E+09
[30] = molecular target: human TNFR1 (soluble recombinant protein) (human) (UniProt P19438); test: phage ELISA, 1 nM TNFRI coat; 100 µg/ml trypsin; phage input 2.26E+10
[31] = molecular target: human TNFR1 (soluble recombinant protein) (human) (UniProt P19438); test: phage ELISA, 1 nM TNFRI coat; 1 mg/ml trypsin; phage input 7.05E+08

human TNFR1 (soluble recombinant protein) (human), sequence (P19438 30-211 limits assumed): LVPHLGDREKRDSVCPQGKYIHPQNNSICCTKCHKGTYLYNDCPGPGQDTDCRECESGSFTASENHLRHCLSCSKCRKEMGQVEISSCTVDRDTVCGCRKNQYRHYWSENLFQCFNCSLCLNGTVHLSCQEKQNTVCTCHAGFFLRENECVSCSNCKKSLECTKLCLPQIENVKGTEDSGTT

Question: With DOM1h-131 as the substance, how does the phage ELISA read-out [1] read?
Answer: 0.962

Question: What about the phage ELISA read-out [2] of the same substance?
Answer: 0.949

Question: What about the phage ELISA read-out [3] of the same substance?
Answer: 0.213

Question: And the phage ELISA read-out [4]?
Answer: 0.229

Question: What about the phage ELISA read-out [5] of the same substance?
Answer: 0.418

Question: And the phage ELISA read-out [6]?
Answer: 0.115

Question: And the phage ELISA read-out [7]?
Answer: 0.141

Question: What about the phage ELISA read-out [8] of the same substance?
Answer: 0.284

Question: And the phage ELISA read-out [9]?
Answer: 0.573

Question: And the phage ELISA read-out [10]?
Answer: 0.577

Question: What about the phage ELISA read-out [11] of the same substance?
Answer: 0.86

Question: What about the phage ELISA read-out [12] of the same substance?
Answer: 0.946

Question: What about the phage ELISA read-out [13] of the same substance?
Answer: 0.802

Question: And the phage ELISA read-out [14]?
Answer: 0.084

Question: And the phage ELISA read-out [15]?
Answer: 0.284

Question: And the phage ELISA read-out [16]?
Answer: 0.08

Question: And the phage ELISA read-out [17]?
Answer: 0.084

Question: And the phage ELISA read-out [18]?
Answer: 0.286

Question: And the phage ELISA read-out [19]?
Answer: 0.784

Question: And the phage ELISA read-out [20]?
Answer: 0.089

Question: And the phage ELISA read-out [21]?
Answer: 0.944

Question: And the phage ELISA read-out [22]?
Answer: 0.85

Question: And the phage ELISA read-out [23]?
Answer: 0.916

Question: What about the phage ELISA read-out [24] of the same substance?
Answer: 0.114

Question: And the phage ELISA read-out [25]?
Answer: 0.409

Question: What about the phage ELISA read-out [26] of the same substance?
Answer: 0.705

Question: And the phage ELISA read-out [27]?
Answer: 0.196

Question: And the phage ELISA read-out [28]?
Answer: 0.183

Question: What about the phage ELISA read-out [29] of the same substance?
Answer: 0.695

Question: What about the phage ELISA read-out [30] of the same substance?
Answer: 0.377

Question: And the phage ELISA read-out [31]?
Answer: 0.084
